For test [1], the target named is A/Michigan/45/2015 H1 trimer (for structural studies) (influenza A virus A/Michigan/45/2015 (H1)). As to the kind of experiment: cryo-EM structure.
For test [2], the target named is A/Perth/16/2009 H3 trimer (for structural studies) (influenza A virus A/Perth/16/2009 (H3N2)). Kind of test: cryo-EM structure.
Test [3] shares this target. Kind of test: crystal structure.

As a reminder, the stoichiometry N is the number of molecules, sites or subunits per partner or assembly. In test [1], “A/Michigan/45/2015 H1 trimer (for structural studies) (natural protein)” came in with a stoichiometry N of 3.

Regarding “A/Perth/16/2009 H3 trimer (for structural studies) (natural protein)”, the stoichiometry N in test [2] and in test [3] was 3 throughout.

(Values after publication PMC11096021.)
